In US20220112276A1 (Janssen / Centocor, published 2022):
Where a chain is given by its changes, count along the chain named.

T1: mouse pIgR extracellular domain (ECD) (mouse, UniProt O70570 19-645)
T1 construct: Bought from R&D Systems (Cat 2800-PG-050); also called mpIgR ECD
T1 sequence: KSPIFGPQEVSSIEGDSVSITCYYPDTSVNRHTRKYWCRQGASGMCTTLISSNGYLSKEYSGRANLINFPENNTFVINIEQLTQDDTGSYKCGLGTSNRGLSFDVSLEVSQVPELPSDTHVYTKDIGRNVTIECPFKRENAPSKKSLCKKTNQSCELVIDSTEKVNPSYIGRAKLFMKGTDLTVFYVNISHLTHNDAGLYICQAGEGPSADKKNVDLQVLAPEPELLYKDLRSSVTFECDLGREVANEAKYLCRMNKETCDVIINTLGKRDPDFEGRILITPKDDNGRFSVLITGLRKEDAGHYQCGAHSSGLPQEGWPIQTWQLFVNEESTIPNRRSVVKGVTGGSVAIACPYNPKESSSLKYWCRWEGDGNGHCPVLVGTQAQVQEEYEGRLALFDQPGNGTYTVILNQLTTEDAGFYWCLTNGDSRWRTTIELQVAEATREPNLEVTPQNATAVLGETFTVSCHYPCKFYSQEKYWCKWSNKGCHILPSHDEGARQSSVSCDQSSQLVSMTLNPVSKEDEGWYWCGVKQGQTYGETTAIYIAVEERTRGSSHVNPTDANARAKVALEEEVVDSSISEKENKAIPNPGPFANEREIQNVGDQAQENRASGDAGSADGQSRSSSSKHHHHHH

B1: 03G07R3 VHH Mono-Fc (Fc fusion)
chain: EVQLVESGGGLVQAGDSLRLSCAASGRTLSFDTYAMAWFRQAPGKEREFVASIDYNGGSTDYADSVKGRFTVTRDNAKNTVTLRMNSLKPDDTAVYYCASARYYRSGTSFPVNYWGQGTQVTVSSSPAPELLGGPSVFLFPPKPKDTLMISRTPEVTCVVVDVSHEDPEVKFNWYVDGVEVHNAKTKPREEQYNSTYRVVSVLTVLHQDWLNGKEYKCKVSNKALPAPIEKTISKAKGQPREPQVYTKPPSREEMTKNQVSLSCLVKGFYPSDIAVEWESNGQPENNYKTTVPVLDSDGSFRLASYLTVDKSRWQQGNVFSCSVMHEALHNHYTQKSLSLSPGK
B2: 01C01R2LS VHH Mono-Fc (Fc fusion)
chain: QVQLVESGGGLQQAGGSLRLSCAASGRTVTVMTVGWFRQAPGKEREFVAAITMYGERTYYADSVKGRFTISRDNAKNTVDLQMNSLKPEDAAVYYCAARTYVSGIYDRFDDYNYWGQGTQVTVSSSPAPELLGGPSVFLFPPKPKDTLMISRTPEVTCVVVDVSHEDPEVKFNWYVDGVEVHNAKTKPREEQYNSTYRVVSVLTVLHQDWLNGKEYKCKVSNKALPAPIEKTISKAKGQPREPQVYTKPPSREEMTKNQVSLSCLVKGFYPSDIAVEWESNGQPENNYKTTVPVLDSDGSFRLASYLTVDKSRWQQGNVFSCSVMHEALHNHYTQKSLSLSPGK
B3: 01G02R2LS VHH Mono-Fc (Fc fusion)
chain: QVQLVESGGGLVQAGDSLALSCAGSGDTFSNYAMGWFRQAPGKEREFVADISWYGANIGYADSVKGRFTISRDNAKNMVTLRMNSLKPEDTAVYYCAADRNHWPVKGDYWGQGTQVTVSSSPAPELLGGPSVFLFPPKPKDTLMISRTPEVTCVVVDVSHEDPEVKFNWYVDGVEVHNAKTKPREEQYNSTYRVVSVLTVLHQDWLNGKEYKCKVSNKALPAPIEKTISKAKGQPREPQVYTKPPSREEMTKNQVSLSCLVKGFYPSDIAVEWESNGQPENNYKTTVPVLDSDGSFRLASYLTVDKSRWQQGNVFSCSVMHEALHNHYTQKSLSLSPGK
B4: 01H02R3LS VHH Mono-Fc (Fc fusion)
chain: QVQLVESGGGLVQPGGSLRLSCAASGSIFSASVMGWYRQGPGKQREFVARISPGGVTHYADSVKGRFTISKDNAKNTVTLQMNSLKPEDTAVYYCNADRFGFEVYWGQGTLVTVSSSPAPELLGGPSVFLFPPKPKDTLMISRTPEVTCVVVDVSHEDPEVKFNWYVDGVEVHNAKTKPREEQYNSTYRVVSVLTVLHQDWLNGKEYKCKVSNKALPAPIEKTISKAKGQPREPQVYTKPPSREEMTKNQVSLSCLVKGFYPSDIAVEWESNGQPENNYKTTVPVLDSDGSFRLASYLTVDKSRWQQGNVFSCSVMHEALHNHYTQKSLSLSPGK
B5: 01G07R3 VHH Mono-Fc (Fc fusion)
chain: QVQLVESGGGLVQAGDSLRLSCAASGRTLSFDTYAMGWFRQAPGKEREFVASIDWSGGTTYYADSVKGRFTVTRDNAKNTVTLRMNSLKPADTAVYYCAAAQYYRSGTSFPANYWGQGTLVTVSSSPAPELLGGPSVFLFPPKPKDTLMISRTPEVTCVVVDVSHEDPEVKFNWYVDGVEVHNAKTKPREEQYNSTYRVVSVLTVLHQDWLNGKEYKCKVSNKALPAPIEKTISKAKGQPREPQVYTKPPSREEMTKNQVSLSCLVKGFYPSDIAVEWESNGQPENNYKTTVPVLDSDGSFRLASYLTVDKSRWQQGNVFSCSVMHEALHNHYTQKSLSLSPGK
B6: 01D02R3LS VHH Mono-Fc (Fc fusion)
chain: QVQLVESGGGLVQAGDSLTLSCAASGRSVGFDTYGMAWFRQAPGKEREFVASIAYNGETTSYADSVQGRFTVTRENAKNTIALRMNGLKPDDTAVYYCAAAQYYLTGTSFPAKFWGQGTLVTVSSSPAPELLGGPSVFLFPPKPKDTLMISRTPEVTCVVVDVSHEDPEVKFNWYVDGVEVHNAKTKPREEQYNSTYRVVSVLTVLHQDWLNGKEYKCKVSNKALPAPIEKTISKAKGQPREPQVYTKPPSREEMTKNQVSLSCLVKGFYPSDIAVEWESNGQPENNYKTTVPVLDSDGSFRLASYLTVDKSRWQQGNVFSCSVMHEALHNHYTQKSLSLSPGK
B7: 03D01R3 VHH Mono-Fc (Fc fusion)
chain: EVQLVESGGGLVQPGGSLRLSCAASGFTFRTYYMGWFRQAPGKEREFVGVTRSSDDVTYYADSVKGRFTISRDNAKNTVYLQMSRLKPEDTAVYYCAAKPVPITRYSFPQIGEEYDYWGQGTLVTVSSSPAPELLGGPSVFLFPPKPKDTLMISRTPEVTCVVVDVSHEDPEVKFNWYVDGVEVHNAKTKPREEQYNSTYRVVSVLTVLHQDWLNGKEYKCKVSNKALPAPIEKTISKAKGQPREPQVYTKPPSREEMTKNQVSLSCLVKGFYPSDIAVEWESNGQPENNYKTTVPVLDSDGSFRLASYLTVDKSRWQQGNVFSCSVMHEALHNHYTQKSLSLSPGK
B8: 02B09R3 VHH Mono-Fc (Fc fusion)
chain: B7 chain with Q39R, N77D
B9: 01C09R3 VHH Mono-Fc (Fc fusion)
chain: B7 chain with P14A
B10: 03D12R3 VHH Mono-Fc (Fc fusion)
chain: QVQLVESGGGLVQAGGSLRLSCAASGRTFSSYAMGWFRQAPGKEREFAAVITWNGGSTHYADSVKGRFTISRDNAKNTVYLQMNSLKPEDTAVYYCAADPMNSPYWGQGTQVTVSSSPAPELLGGPSVFLFPPKPKDTLMISRTPEVTCVVVDVSHEDPEVKFNWYVDGVEVHNAKTKPREEQYNSTYRVVSVLTVLHQDWLNGKEYKCKVSNKALPAPIEKTISKAKGQPREPQVYTKPPSREEMTKNQVSLSCLVKGFYPSDIAVEWESNGQPENNYKTTVPVLDSDGSFRLASYLTVDKSRWQQGNVFSCSVMHEALHNHYTQKSLSLSPGK
B11: 01C02R3 VHH Mono-Fc (Fc fusion)
chain: QVQLVESGGGLVQAGGSLRLSCAASGLSFSSYTMGWFRQVPGKERELISAIHWSGGPTFYSNSVKGRFTISRDNAKDTVYLQMNSLKPEDTAVYYCTAEPVGSMISPDWTYWGQGTLVTVSSSPAPELLGGPSVFLFPPKPKDTLMISRTPEVTCVVVDVSHEDPEVKFNWYVDGVEVHNAKTKPREEQYNSTYRVVSVLTVLHQDWLNGKEYKCKVSNKALPAPIEKTISKAKGQPREPQVYTKPPSREEMTKNQVSLSCLVKGFYPSDIAVEWESNGQPENNYKTTVPVLDSDGSFRLASYLTVDKSRWQQGNVFSCSVMHEALHNHYTQKSLSLSPGK
B12: 01F04R3LS VHH Mono-Fc (Fc fusion)
chain: EVQLVESGGGLVQAGGSLRLSCAASGRTFSRYAMGWFRQAPGKEREFVAAIAWSGGAIYYADFVKGQFTISRDNAKNTVDLEMNRLKPEDTAVYYCGSTRDPRVGDKKFYDYWGQGTQVTVSSSPAPELLGGPSVFLFPPKPKDTLMISRTPEVTCVVVDVSHEDPEVKFNWYVDGVEVHNAKTKPREEQYNSTYRVVSVLTVLHQDWLNGKEYKCKVSNKALPAPIEKTISKAKGQPREPQVYTKPPSREEMTKNQVSLSCLVKGFYPSDIAVEWESNGQPENNYKTTVPVLDSDGSFRLASYLTVDKSRWQQGNVFSCSVMHEALHNHYTQKSLSLSPGK
B13: 01E02R3LS VHH Mono-Fc (Fc fusion)
chain: EVQLVESGGGLVETGGSLRLSCAASGRTESTYTMAWFRQAPGKERERVATISFSGSTTTYLASVQGRFTISRDGAKNTIFLQMNGLKPEDTAVYYCALDTRRRVGSSPRFYDYWGQGTLVTVSSSPAPELLGGPSVFLFPPKPKDTLMISRTPEVTCVVVDVSHEDPEVKFNWYVDGVEVHNAKTKPREEQYNSTYRVVSVLTVLHQDWLNGKEYKCKVSNKALPAPIEKTISKAKGQPREPQVYTKPPSREEMTKNQVSLSCLVKGFYPSDIAVEWESNGQPENNYKTTVPVLDSDGSFRLASYLTVDKSRWQQGNVFSCSVMHEALHNHYTQKSLSLSPGK

Molecular target: T1, mouse pIgR extracellular domain (ECD)
Experiment: SPR, VHH captured by anti-Fc, ECD analyte
Outline: (§1)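 Anti-human Fc surface captured VHH at 0.5 ug/ml (~200-300 RU); running buffer HBSP with 100 ug/ml BSA, 30 μL/min. Single-cycle kinetics with ECD injected low to high from 30 nM in 3-fold dilutions, dissociation 30 min. Double-referenced data globally fit to 1:1 Langmuir model for kon, koff, KD.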

Kd | Binder
5.58 nM | B1
11.3 nM | B2
23.3 nM | B3

Molecular target: T2, cynomolgus monkey pIgR extracellular domain (cynomolgus monkey, UniProt A0A2K5WMU9 19-638)
T2 construct: extracellular domain
T2 sequence (A0A2K5WMU9 entry or part of it): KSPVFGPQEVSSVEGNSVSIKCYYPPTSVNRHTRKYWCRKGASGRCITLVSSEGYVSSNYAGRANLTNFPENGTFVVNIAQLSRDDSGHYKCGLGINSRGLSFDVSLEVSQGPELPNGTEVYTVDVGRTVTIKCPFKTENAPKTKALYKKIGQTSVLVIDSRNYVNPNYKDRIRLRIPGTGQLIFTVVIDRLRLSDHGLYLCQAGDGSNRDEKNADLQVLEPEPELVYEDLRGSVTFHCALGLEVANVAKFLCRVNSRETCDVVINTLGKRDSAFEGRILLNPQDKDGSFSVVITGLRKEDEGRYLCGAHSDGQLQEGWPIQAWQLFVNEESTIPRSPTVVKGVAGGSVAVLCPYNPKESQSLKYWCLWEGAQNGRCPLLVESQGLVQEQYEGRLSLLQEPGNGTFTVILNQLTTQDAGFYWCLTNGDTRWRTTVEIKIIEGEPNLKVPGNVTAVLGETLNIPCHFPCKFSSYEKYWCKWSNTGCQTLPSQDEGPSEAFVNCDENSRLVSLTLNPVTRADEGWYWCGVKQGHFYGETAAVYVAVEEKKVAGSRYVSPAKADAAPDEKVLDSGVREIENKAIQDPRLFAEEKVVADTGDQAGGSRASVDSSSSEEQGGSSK
Experiment: SPR, VHH captured by anti-Fc, ECD analyte
Outline: as §1

Kd | Binder
20.6 nM | B4
40.8 nM | B5
0.885 nM | B6
5.51 nM | B7
9.51 nM | B8
5.73 nM | B9
0.905 nM | B10
361 nM | B1
8.43 nM | B11
236 nM | B12
0.018 nM | B13

Molecular target: T3, human pIgR extracellular domain (ECD) (human, UniProt P01833 19-638)
T3 construct: Bought from R&D Systems (Cat 2717-PG-050); also called hpIgR ECD
T3 sequence (P01833 other isoform, or with tags, fused parts or gaps): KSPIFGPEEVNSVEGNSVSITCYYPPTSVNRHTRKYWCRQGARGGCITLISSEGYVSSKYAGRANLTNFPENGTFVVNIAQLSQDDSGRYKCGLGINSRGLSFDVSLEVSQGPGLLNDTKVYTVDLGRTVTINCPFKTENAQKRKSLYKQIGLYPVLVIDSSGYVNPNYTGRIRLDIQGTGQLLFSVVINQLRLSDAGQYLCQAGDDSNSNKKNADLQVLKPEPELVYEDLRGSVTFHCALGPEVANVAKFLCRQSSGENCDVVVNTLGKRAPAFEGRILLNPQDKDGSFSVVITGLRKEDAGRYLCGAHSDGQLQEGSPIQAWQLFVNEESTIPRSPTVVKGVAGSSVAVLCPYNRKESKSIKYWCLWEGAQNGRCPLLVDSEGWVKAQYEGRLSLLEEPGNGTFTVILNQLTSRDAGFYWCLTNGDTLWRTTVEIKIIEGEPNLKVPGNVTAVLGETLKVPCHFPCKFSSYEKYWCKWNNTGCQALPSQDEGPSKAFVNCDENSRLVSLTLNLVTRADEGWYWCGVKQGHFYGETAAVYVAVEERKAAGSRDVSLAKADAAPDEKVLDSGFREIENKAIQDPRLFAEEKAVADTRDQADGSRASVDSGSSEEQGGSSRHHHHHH
Experiment: SPR, VHH captured by anti-Fc, ECD analyte
Outline: as §1

Kd | Binder
3.24 nM | B4
1.18 nM | B5
0.809 nM | B6
2.26 nM | B7
2.46 nM | B8
2.18 nM | B9
0.606 nM | B10
2.63 nM | B1
1.23 nM | B11
23.8 nM | B12
0.6 nM | B13
